Assay results taken from patent US20030068675, “Position dependent recognition of GNN nucleotide triplets by zinc fingers” (published 2003).

Columns and labels:
Experiment in all cases: EMSA
Settings in all cases: tags: MBP fusion
ZFP SBS#1110 = target: T1, ZFP SBS#1110 (synthetic)
T1 chain: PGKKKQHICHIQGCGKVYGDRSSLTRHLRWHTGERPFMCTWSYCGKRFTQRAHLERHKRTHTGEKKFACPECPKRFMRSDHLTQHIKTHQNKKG
Outline: (§1)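 Purified ZFP was titrated against labeled double-stranded target (1 nM or lower, at least 10-fold below expected Kd) carrying the natural binding site with flanks. Binding buffer was 10 mM Tris pH 7.5, 100 mM KCl, 1 mM MgCl2, 0.1 mM ZnCl2, 5 mM DTT, 10% glycerol, 0.02% BSA, with equilibration for at least 45 min. Bound and free target were separated on a 10% polyacrylamide gel.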

ZFP SBS#1109 = target: T2, ZFP SBS#1109 (synthetic)
T2 chain: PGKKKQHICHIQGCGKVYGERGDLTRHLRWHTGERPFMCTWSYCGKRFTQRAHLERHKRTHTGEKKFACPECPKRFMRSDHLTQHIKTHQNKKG
Outline: as §1

ZFP SBS#1153 = target: T3, ZFP SBS#1153 (synthetic)
T3 chain: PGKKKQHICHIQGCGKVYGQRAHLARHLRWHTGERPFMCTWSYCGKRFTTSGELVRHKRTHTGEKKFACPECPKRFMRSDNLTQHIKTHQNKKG
Outline: as §1

ZFP SBS#1152 = target: T4, ZFP SBS#1152 (synthetic)
T4 chain: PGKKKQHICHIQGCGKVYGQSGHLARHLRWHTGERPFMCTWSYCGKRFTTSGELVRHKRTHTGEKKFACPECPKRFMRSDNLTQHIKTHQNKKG
Outline: as §1

ZFP SBS#1154 = target: T5, ZFP SBS#1154 (synthetic, UniProt P08047)
T5 chain: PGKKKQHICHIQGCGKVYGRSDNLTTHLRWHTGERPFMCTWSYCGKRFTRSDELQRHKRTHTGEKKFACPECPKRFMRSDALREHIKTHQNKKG
Outline: as §1

ZFP SBS#469 = target: T6, ZFP SBS#469 (synthetic)
T6 chain: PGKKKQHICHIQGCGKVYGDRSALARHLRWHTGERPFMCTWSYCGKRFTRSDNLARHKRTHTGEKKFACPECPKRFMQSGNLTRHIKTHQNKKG
Outline: as §1

ZFP SBS#1112 = ZFP SBS#1112 (synthetic)
Chain of ZFP SBS#1112 (synthetic) (chain, as listed by the source): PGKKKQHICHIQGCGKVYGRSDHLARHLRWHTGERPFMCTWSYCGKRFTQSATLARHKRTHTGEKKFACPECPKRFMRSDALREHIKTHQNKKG
Outline: as §1

ZFP SBS#1111 = target: T7, ZFP SBS#1111 (synthetic)
T7 chain: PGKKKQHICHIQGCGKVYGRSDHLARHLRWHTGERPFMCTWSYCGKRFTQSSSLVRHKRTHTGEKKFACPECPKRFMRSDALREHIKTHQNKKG
Outline: as §1

ZFP SBS#468 = ZFP SBS#468 (synthetic)
Chain of ZFP SBS#468 (synthetic) (chain, as listed by the source): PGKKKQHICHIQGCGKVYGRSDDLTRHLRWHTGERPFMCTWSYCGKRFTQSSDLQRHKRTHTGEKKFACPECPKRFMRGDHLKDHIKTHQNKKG
Outline: as §1

ZFP SBS#467 = ZFP SBS#467 (synthetic)
Chain of ZFP SBS#467 (synthetic) (chain, as listed by the source): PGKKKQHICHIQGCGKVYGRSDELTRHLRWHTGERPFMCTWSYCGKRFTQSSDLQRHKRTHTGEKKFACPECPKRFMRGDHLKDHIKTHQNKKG
Outline: as §1

ZFP SBS#466 = ZFP SBS#466 (synthetic)
Chain of ZFP SBS#466 (synthetic) (chain, as listed by the source): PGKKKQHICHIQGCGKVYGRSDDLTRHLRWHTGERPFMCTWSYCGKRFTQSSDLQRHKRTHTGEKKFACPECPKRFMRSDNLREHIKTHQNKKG
Outline: as §1

ZFP SBS#259 = ZFP SBS#259 (synthetic)
Outline: as §1

ZFP SBS#1115 = ZFP SBS#1115 (synthetic)
Chain of ZFP SBS#1115 (synthetic) (chain, as listed by the source): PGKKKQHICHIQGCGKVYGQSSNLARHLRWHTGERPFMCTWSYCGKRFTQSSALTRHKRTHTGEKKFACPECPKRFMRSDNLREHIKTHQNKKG
Outline: as §1

ZFP SBS#1114 = target: T8, ZFP SBS#1114 (synthetic)
T8 chain: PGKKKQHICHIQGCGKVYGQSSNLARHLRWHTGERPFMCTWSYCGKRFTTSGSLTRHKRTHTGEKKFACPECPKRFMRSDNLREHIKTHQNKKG
Outline: as §1

ZFP SBS#1130 = target: T9, ZFP SBS#1130 (synthetic)
T9 chain: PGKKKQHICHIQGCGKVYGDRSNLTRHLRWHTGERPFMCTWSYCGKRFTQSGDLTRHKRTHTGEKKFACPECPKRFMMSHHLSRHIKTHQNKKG
Outline: as §1

ZFP SBS#1119 = target: T10, ZFP SBS#1119 (synthetic, UniProt P08047)
T10 chain: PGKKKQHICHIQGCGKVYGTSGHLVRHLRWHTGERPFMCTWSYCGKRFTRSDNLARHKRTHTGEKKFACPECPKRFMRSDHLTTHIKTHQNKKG
Outline: as §1

ZFP SBS#1124 = target: T11, ZFP SBS#1124 (synthetic)
T11 chain: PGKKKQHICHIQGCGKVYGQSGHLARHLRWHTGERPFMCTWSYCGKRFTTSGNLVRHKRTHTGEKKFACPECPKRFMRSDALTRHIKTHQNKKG
Outline: as §1

ZFP SBS#1148 = target: T12, ZFP SBS#1148 (synthetic)
T12 chain: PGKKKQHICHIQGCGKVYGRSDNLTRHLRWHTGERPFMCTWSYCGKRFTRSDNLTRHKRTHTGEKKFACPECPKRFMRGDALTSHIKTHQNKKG
Outline: as §1

ZFP SBS#1149 = ZFP SBS#1149 (synthetic)
Outline: as §1

ZFP SBS#1135 = ZFP SBS#1135 (synthetic, UniProt P08047)
Outline: as §1

ZFP SBS#1120 = target: T13, ZFP SBS#1120 (synthetic)
T13 chain: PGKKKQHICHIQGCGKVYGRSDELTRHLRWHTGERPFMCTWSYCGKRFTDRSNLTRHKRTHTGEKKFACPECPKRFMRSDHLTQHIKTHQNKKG
Outline: as §1

ZFP SBS#1137 = ZFP SBS#1137 (synthetic)
Outline: as §1

ZFP SBS#1136 = target: T14, ZFP SBS#1136 (synthetic)
T14 chain: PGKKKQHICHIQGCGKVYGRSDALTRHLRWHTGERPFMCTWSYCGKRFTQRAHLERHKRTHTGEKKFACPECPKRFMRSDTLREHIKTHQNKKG
Outline: as §1

ZFP SBS#1122 = target: T15, ZFP SBS#1122 (synthetic)
T15 chain: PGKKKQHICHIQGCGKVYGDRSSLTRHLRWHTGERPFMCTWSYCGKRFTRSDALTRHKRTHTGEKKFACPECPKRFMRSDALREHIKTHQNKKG
Outline: as §1

ZFP SBS#1121 = target: T16, ZFP SBS#1121 (synthetic)
T16 chain: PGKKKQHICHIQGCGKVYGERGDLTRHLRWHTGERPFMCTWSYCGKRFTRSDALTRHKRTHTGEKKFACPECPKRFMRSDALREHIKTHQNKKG
Outline: as §1

ZFP SBS#1138 = ZFP SBS#1138 (synthetic)
Chain of ZFP SBS#1138 (synthetic) (chain, as listed by the source): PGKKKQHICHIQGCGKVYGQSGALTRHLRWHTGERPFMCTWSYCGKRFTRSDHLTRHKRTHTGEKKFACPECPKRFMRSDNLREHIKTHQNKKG
Outline: as §1

ZFP SBS#472 = target: T17, ZFP SBS#472 (synthetic)
T17 chain: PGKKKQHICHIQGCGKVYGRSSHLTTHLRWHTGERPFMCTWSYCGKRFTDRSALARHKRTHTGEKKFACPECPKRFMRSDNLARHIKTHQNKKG
Outline: as §1

ZFP SBS#1123 = ZFP SBS#1123 (synthetic)
Chain of ZFP SBS#1123 (synthetic) (chain, as listed by the source): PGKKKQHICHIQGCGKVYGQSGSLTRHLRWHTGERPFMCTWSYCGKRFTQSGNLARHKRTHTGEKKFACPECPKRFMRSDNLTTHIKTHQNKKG
Outline: as §1

ZFP SBS#1132 = target: T18, ZFP SBS#1132 (synthetic, UniProt P08047)
T18 chain: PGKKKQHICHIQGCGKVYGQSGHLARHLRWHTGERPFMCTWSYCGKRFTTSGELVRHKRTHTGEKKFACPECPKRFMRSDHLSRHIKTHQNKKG
Outline: as §1

ZFP SBS#1133 = target: T19, ZFP SBS#1133 (synthetic, UniProt P08047)
T19 chain: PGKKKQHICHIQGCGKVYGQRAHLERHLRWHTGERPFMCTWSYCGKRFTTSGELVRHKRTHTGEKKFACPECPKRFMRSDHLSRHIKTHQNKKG
Outline: as §1

ZFP SBS#1134 = ZFP SBS#1134 (synthetic, UniProt P08047)
Outline: as §1

ZFP SBS#1113 = ZFP SBS#1113 (synthetic)
Outline: as §1

ZFP SBS#1118 = target: T20, ZFP SBS#1118 (synthetic)
T20 chain: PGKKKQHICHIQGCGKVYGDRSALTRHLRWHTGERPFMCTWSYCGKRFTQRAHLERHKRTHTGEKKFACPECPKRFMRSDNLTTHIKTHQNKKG
Outline: as §1

B1: AGGGGAGCC (dsDNA)
DNA 1: AGGGGAGCC
DNA 2: GGCTCCCCT
Kd (ZFP SBS#1110): 0.095 nM
Kd (ZFP SBS#1109): 0.347 nM

B2: AAGGCTGGA (dsDNA)
DNA 1: AAGGCTGGA
DNA 2: TCCAGCCTT
Kd (ZFP SBS#1153): 8.2 nM
Kd (ZFP SBS#1152): 1.6 nM

B3: CTGGCGTAG (dsDNA)
DNA 1: CTGGCGTAG
DNA 2: CTACGCCAG
Kd (ZFP SBS#1154): 1.04 nM

B4: GAAGAGGTCT (dsDNA)
DNA 1: GAAGAGGTCT
DNA 2: AGACCTCTTC
Kd (ZFP SBS#469): 13.5 nM

B5: CTGGTAGGG (dsDNA)
DNA 1: CTGGTAGGG
DNA 2: CCCTACCAG
Kd (ZFP SBS#1112): 0.125 nM
Kd (ZFP SBS#1111): 0.095 nM

B6: CAGGCTGCGC (dsDNA)
DNA 1: CAGGCTGCGC
DNA 2: GCGCAGCCTG
Kd (ZFP SBS#468): 42 nM
Kd (ZFP SBS#467): 800 nM
Kd (ZFP SBS#466): 65 nM

B7: GCAGAGGAG (dsDNA)
DNA 1: GCAGAGGAG
DNA 2: CTCCTCTGC
Kd (ZFP SBS#259): 250 nM

B8: CAGGTTGAT (dsDNA)
DNA 1: CAGGTTGAT
DNA 2: ATCAACCTG
Kd (ZFP SBS#1115): 0.7 nM
Kd (ZFP SBS#1114): 2.75 nM

B9: GGTGCAGAC (dsDNA)
DNA 1: GGTGCAGAC
DNA 2: GTCTGCACC
Kd (ZFP SBS#1130): 0.1 nM

B10: TGGGAGGGT (dsDNA)
DNA 1: TGGGAGGGT
DNA 2: ACCCTCCCA
Kd (ZFP SBS#1119): 0.1 nM

B11: GTGGATGGA (dsDNA)
DNA 1: GTGGATGGA
DNA 2: TCCATCCAC
Kd (ZFP SBS#1124): 0.101 nM

B12: TTGGAGGAG (dsDNA)
DNA 1: TTGGAGGAG
DNA 2: CTCCTCCAA
Kd (ZFP SBS#1148): 6 pM
Kd (ZFP SBS#1149): 4 pM

B13: GCGGCGGGG (dsDNA)
DNA 1: GCGGCGGGG
DNA 2: CCCCGCCGC
Kd (ZFP SBS#1135): 0.025 nM

B14: AGGGACGCG (dsDNA)
DNA 1: AGGGACGCG
DNA 2: CGCGTCCCT
Kd (ZFP SBS#1120): 2.73 nM

B15: CCGGGAGTG (dsDNA)
DNA 1: CCGGGAGTG
DNA 2: CACTCCCGG
Kd (ZFP SBS#1137): 0.085 nM
Kd (ZFP SBS#1136): 0.225 nM

B16: CTGGTGGCC (dsDNA)
DNA 1: CTGGTGGCC
DNA 2: GGCCACCAG
Kd (ZFP SBS#1122): 0.101 nM
Kd (ZFP SBS#1121): 2.76 nM

B17: CAGGGGGTA (dsDNA)
DNA 1: CAGGGGGTA
DNA 2: TACCCCCTG
Kd (ZFP SBS#1138): 0.027 nM

B18: GAGGTCTGGA (dsDNA)
DNA 1: GAGGTCTGGA
DNA 2: TCCAGACCTC
Kd (ZFP SBS#472): 80 nM

B19: TAGGAAGCA (dsDNA)
DNA 1: TAGGAAGCA
DNA 2: TGCTTCCTA
Kd (ZFP SBS#1123): 0.065 nM

B20: GGGGCTGGA (dsDNA)
DNA 1: GGGGCTGGA
DNA 2: TCCAGCCCC
Kd (ZFP SBS#1132): 0.055 nM
Kd (ZFP SBS#1133): 0.5 nM

B21: TGGGGGTGG (dsDNA)
DNA 1: TGGGGGTGG
DNA 2: CCACCCCCA
Kd (ZFP SBS#1134): 0.067 nM

B22: CTGGGGGCA (dsDNA)
DNA 1: CTGGGGGCA
DNA 2: TGCCCCCAG
Kd (ZFP SBS#1113): 0.06 nM

B23: TAGGGAGTC (dsDNA)
DNA 1: TAGGGAGTC
DNA 2: GACTCCCTA
Kd (ZFP SBS#1118): 1.4 nM
